Results as given in patent publication US11957762B2, “Immune tolerant and non-immune tolerant elastin-like recombinant peptides and methods of use” (University of Utah Research Foundation, priority 2015, dated 2024).
Entries after “also recorded” stand apart in the source; their conditions may differ. Where two headings read alike, the source gives them in different places.

B1: iTEP-MPBH-ABA-Sali: conjugate of hydrophilic iTEP (SEQ ID NO: 58) with Sali-ABA-MPBH, self-assembled into a NP (conjugate)
chain: GGAGVPGGAGVPGGAGVPGGAGVPGGAGVPGGAGVPGGAGVPGGAGVPGGAGVPGGAGVPGGAGVPGGAGVPGGAGVPGGAGVPGGAGVPGGAGVPGGAGVPGGAGVPGGAGVPGGAGVPGGAGVPGGAGVPGGAGVPGGAGVPGGAGVPGGAGVPGGAGVPGGAGVPGGAGVPGGAGVPGGAGVPGGAGVPGGAGVPGGAGVPGGAGVPGGAGVPGGAGVPGGAGVPGGAGVPGGAGVPGGAGVPGGAGVPGGAGVPGGAGVPGGAGVPGGAGVPGGAGVPGGAGVPGGAGVPGGAGVPGGAGVPGGAGVPGGAGVPGGAGVPGGAGVPGGAGVPGGAGVPGGAGVPGGAGVPGGAGVPGGAGVPGGAGVPGGAGVPGGAGVPGGAGVPGGAGVPGGAGVPGGAGVPGGAGVPGGAGVPGGGVLPGVGGVLPGVGGVLPGVGGVLPGVGGVLPGVGGVLPGVGGVLPGVGGVLPGVGGVLPGVGGVLPGVGGVLPGVGGVLPGVGGVLPGVGGVLPGVGGVLPGVGGVLPGVGGVLPGVGGVLPGVGGVLPGVGGVLPGVGGVLPGVGGVLPGVGGVLPGVGGVLPGVGGVLPGVGGVLPGVGGVLPGVGGVLPGVGGVLPGVGGVLPGVGGVLPGVGGVLPGVGGVLPGVGGVLPGVGGVLPGVGGVLPGVGGVLPGVGGVLPGVGGVLPGVGGVLPGVGGVLPGVGGVLPGVGGVLPGVGGVLPGVGGVLPGVGGVLPGVGGVLPGVGGVLPGVGGVLPGVGGVLPGVGGVLPGVGGVLPGVGGVLPGVGGVLPGVGGVLPGVGGVLPGVGG
modifications: conjugated to Sali via ABA-MPBH linker

Key:
regular 4T1-luc cells = experiment: Cytotoxicity, regular 4T1-luc cells; assay type: cell-based, murine
Protocol: (§1) Cytotoxicity studies. The cytotoxicity was measured as previously described (Zhao, et al; Mol. Pharm, 2014; 11(8):2703-12). The incubation time was 72 hours. 4T1-lu mammosphere cells were generated as the previously described (Zhao, et al; Mol. Pharm, 2014; 11(8):2703-12).

[1] = Tissue distribution of Sali-ABA in 4T1-luc tumored mice; details: mouse, in vivo, 24 h
Protocol: (§2) Pharmacokinetics and biodistribution study. Sali-ABA concentrations in blood and tissues were analyzed, and the concentrations were analyzed as previously described (Zhao, et al; Mol. Pharm, 2014; 11(8):2703-12).
The aforementioned slow clearance and particle size of iTEP-MPBH-ABA-Sali could enable the conjugate to leverage the EPR effect and, therefore, more efficiently accumulate in tumors. […] Tumors and all following organ samples were collected at 24 hours post administration. The quantities of Sali-ABA were expressed as percentage of initial dose normalized by weight of organs, ID %/gram. The data were analyzed by one-way ANOVA. P-value is shown in the figure and * indicates a significant difference. At the same time, there was a reduction of Sali-ABA accumulation in the heart when iTEP-MPBH-ABA-Sali NP was compared with free Sali, although the difference was not statistically significant (0.57±0.18 ID %/gram vs 0.86±0.11 ID %/gram, FIG. 11C). The data were analyzed by one-way ANOVA. The reduction may benefit the toxicity profile of the NP as the heart is an organ sensitive to Sali (Bastianello, et al., J S Afr Vet Assoc, 1996; 67(1):38-41). […] The data were analyzed by one-way ANOVA. P-values are shown in the figure and * indicates a significant difference.

[2] = Hydrodynamic diameter by dynamic light scattering (DLS); assay type: physicochemical; details: 25 μM in PBS at 37° C.
Protocol: Characterization of the size of iTEPB-pOVA and iTEPB-iTEPA-pOVA fusions. The particle size distribution of the iTEP fusions was determined by dynamic light scattering (DLS) using a Zetasizer Nano-ZS instrument (Malvern Instruments, Malvern, UK) as previously described.^(29) The fusions were prepared at 5 μM and 25 μM in PBS and equilibrated at 37° C. for the measurement. The reported results represented the average particle size by number.
Dynamic light scattering (DLS) measurement. The measurement was carried out as previously described. iTEP, iTEP-MPBH-ABA-Sali conjugate, or PTX NP were measured at 25 μM in PBS at 37° C. using a Malvern Zetasizer Nano system (Malvern, Chester County, PA, USA).
Characterization of hydrodynamic diameters of iTEP-vaccine fusions. Hydrodynamic diameters of iTEP-vaccine fusions were determined by dynamic light scattering (DLS) using a Zetasizer Nano-ZS instrument (Malvern Instruments, Malvern, UK) as previously described (Zhao et al., Mol Pharm, 2014; 11(8):2703-12). The samples were resuspended at concentrations of 5, 25, 50, and 100 μM in PBS and sat at room temperature overnight before measurement. Some samples were kept in 5% C02 at 37° C. for 16 h before DLS measurement. Hydrodynamic diameter results of the sample of 5 μM concentration were reported because they were not affected by the used sample concentrations. Hydrodynamic diameters were presented using the size-by-number distribution approach. Z-average values and sizes-by-intensity data, however, were also reported.

[3] = test system: mammosphere 4T1-luc cells; experiment: Cytotoxicity, mammosphere 4T1-luc cells (CSCs); assay type: cell-based, murine
Protocol: as §1

[4] = In vitro Sali-ABA release assay; assay type: physicochemical; details: neutral pH (PBS), up to 100-hour monitoring
Protocol: In vitro Sali-ABA release assay. The release of Sali-ABA from iTEP-MPBH-ABA-Sali NP was measured after the NP was incubated in PBS (pH=7.4) or 0.1M sodium acetate/acetic acid buffer (pH=5) at 37° C. Multiple repeats of each mixture were kept in separate Eppendorf tubes and shaken at 100 rpms at 37° C. At predetermined time points, free Sali-ABA in one tube of sample was determined by HPLC based on a standard curve of Sali-ABA. The standard curve was established at 280 nm. The HPLC setup was the same as the described herein.
The relationship of the percentage of Sali-ABA release (F) with time (t) was fitted using the following equation and GraphPad V5.0. F%,released=100[…]

[5] = Pharmacokinetics (plasma Sali-ABA) after intravenous administration; set-up: species or system mice; details: mouse, in vivo
Protocol: as §2
Results. The pharmacokinetics of Sali-ABA and iTEP-MPBH-ABA-Sali were compared after they were administered intravenously to mice at a dose of 20 mg/Kg Sali-ABA equivalent. Plasma concentrations of Sali-ABA after the administration of either formulation were monitored for up to 24 hours (FIG. 11A). The temporal changes of the concentrations were fitted into a two-compartment pharmacokinetics model.

[6] = test system: 4T1-luc orthotopic tumors; experiment: Tumor growth, metastasis and survival study; assay type: in vivo, Balb/c mice
Protocol: Tumor growth study. Balb/c mice were inoculated subcutaneously with 10^6 4T1-luc cells in 50 μL PBS at the #9 mammary glands. At the seventh day after inoculation when the volumes of all tumors reached or exceeded 100 mm^3, the mice were randomly assigned into groups as described in FIGS. 12 and 13. The dosing and dosing schedules are as following: • 1. PBS control (three day interval); Sali-ABA (20 mg/Kg BW, three-day interval), • 2. iTEP-MPBH-ABA-Sali NP (20 mg/Kg BW, three-day interval), • 3. PTX NP (10 mg/Kg BW, three-day interval), • 4. PTX NP and iTEP-MPBH-ABA-Sali combination, iTEP-MPBH-ABA-Sali NP on the first day (20 mg/Kg BW), PTX NP on the second day (10 mg/Kg BW), then two-day interval.
Seven total doses were administered intravenously. The length and width dimensions of tumors were measured with a caliper every other day. Tumor volumes were estimated using the formula: Tumor Volume=(length×width^2/2) (Zhang et al., Biomaterials, 2012; 33(2):679-91). Also, mouse body weight was recorded the same day when the tumor size was measured. The treatments of PTX NP and the combinational therapy were done after the results of the first three treatment groups were obtained.
Moreover, in order to monitor metastasis, bioluminescence signals released from 4T1-luc cells were monitored as previously described (Tao et al., BMC Cancer, 2008; 8(1):228). Specifically, experimental mice were injected intraperitoneally with 100 μl of D-luciferin (15 mg/ml) at predetermined time points (twice each week, 3-4 days interval). At 15 minutes after luciferin injection, the mice were imaged under anesthesia in a Xenogen IVIS 200 biophotonic imager (PerkinElmer, Inc., MA, USA). The bioluminescence intensity was denoted using photon emission from the subject or radiance in the unit of photons/sec/cm^2/sr (steradian). […] The overall survival time was counted as days between tumor inoculation and mouse sacrifice. Metastasis-free survival and overall survival were analyzed by the Kaplan-Meier method, and the median survival of each groups were compared using the Log-rank test with GraphPad V5.0.

| Molecule | IC50 (regular 4T1-luc cells; Mus musculus, 4T1-Luc, 72 h) [µM] | Sali-ABA accumulation in the heart [1] [ID %/gram] | hydrodynamic diameter (DLS) [2] [nm] | cytotoxicity, times lower than Sali-ABA-MPBH alone (regular 4T1-luc cells; regular 4T1-luc cells) [times] | IC50 (regular 4T1-luc cells; regular 4T1-luc cells, 72 hours, read-out: IC50) [µM] | times more toxic to mammosphere 4T1-luc cells (CSCs) than to regular 4T1-luc cells [3] | IC50 ([3]; mammosphere 4T1-luc cells, 72 hours) [µM] | release at the neutral pH [4] | elimination half-life, times longer than free Sali-ABA administration [5] [times] | median overall survival ([6]; days after tumor inoculation) [days] | development of metastasis in treated mice ([6]; mouse, in vivo, listed as iTEP-MPBH-ABA-Sali NP) | inhibition of primary tumor growth ([6]; seven intravenous doses) |
| --- | --- | --- | --- | --- | --- | --- | --- | --- | --- | --- | --- | --- |
| CC[C@@H](C(=O)[C@@H](C)[C@@H](O)[C@H](C)[C@@H]1O[C@@H]([C@@H](CC)C(=O)O)CC[C@@H]1C)[C@H]1O[C@]2(C=C[C@@H](O)[C@]3(CC[C@@](C)([C@H]4CC[C@](O)(CC)[C@H](C)O4)O3)O2)[C@H](C)C[C@@H]1C [Sali, Salinomycin, reference compound] | 4.4 | 0.86±0.11 | – | – | – | – | – | – | – | – | – | – |
| B1 | – | – | 51.2±18.2 | 2.6 | 42.2 | about eight | 5.8 | no detectable release | 35 | 39 | No mice in the NP-treated group developed metastasis; also recorded: zero metastasis | slowed primary tumor growth |
